Measured values as given in patent publication US20210238296A1 (Genmab, published 2021).

T1: CD20 (human, UniProt P11836 1-297)
T1 construct: whole, on cells; cell surface target of IgG1-11B8; also called human CD20
T1 sequence (looked up): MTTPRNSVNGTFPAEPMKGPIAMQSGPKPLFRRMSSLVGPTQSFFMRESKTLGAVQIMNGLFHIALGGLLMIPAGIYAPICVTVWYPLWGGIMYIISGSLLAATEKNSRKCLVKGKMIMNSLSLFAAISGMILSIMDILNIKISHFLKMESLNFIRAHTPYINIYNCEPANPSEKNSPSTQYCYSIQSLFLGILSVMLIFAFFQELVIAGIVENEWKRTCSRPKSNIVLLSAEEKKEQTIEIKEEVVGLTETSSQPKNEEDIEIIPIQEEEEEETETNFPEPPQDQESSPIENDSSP

T2: diFCGR2AH-HisBAP (dimeric extracellular domain of FcγRIIA allotype 131H) (Homo sapiens (Human), UniProt P12318 34-215, C-terminally biotinylated)
T2 construct: dimeric, His-tagged, C-terminally biotinylated ECD; also called IIA-131H
T2 sequence: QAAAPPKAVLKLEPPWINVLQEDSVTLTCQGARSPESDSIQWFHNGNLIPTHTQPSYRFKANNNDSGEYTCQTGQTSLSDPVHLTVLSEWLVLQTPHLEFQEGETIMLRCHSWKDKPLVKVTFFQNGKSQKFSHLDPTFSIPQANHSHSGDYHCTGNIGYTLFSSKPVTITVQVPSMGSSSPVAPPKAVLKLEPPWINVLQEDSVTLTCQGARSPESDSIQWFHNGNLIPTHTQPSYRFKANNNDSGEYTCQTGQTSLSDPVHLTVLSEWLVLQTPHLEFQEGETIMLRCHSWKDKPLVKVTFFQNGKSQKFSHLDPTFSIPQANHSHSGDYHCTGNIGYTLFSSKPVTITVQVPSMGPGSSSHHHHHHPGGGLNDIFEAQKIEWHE

T3: diFCGR2AR-HisBAP (dimeric extracellular domain of FcγRIIA allotype 131R) (Homo sapiens (Human), UniProt P12318 36-215, C-terminally biotinylated)
T3 construct: dimeric, His-tagged, C-terminally biotinylated ECD; also called IIA-131R
T3 chain: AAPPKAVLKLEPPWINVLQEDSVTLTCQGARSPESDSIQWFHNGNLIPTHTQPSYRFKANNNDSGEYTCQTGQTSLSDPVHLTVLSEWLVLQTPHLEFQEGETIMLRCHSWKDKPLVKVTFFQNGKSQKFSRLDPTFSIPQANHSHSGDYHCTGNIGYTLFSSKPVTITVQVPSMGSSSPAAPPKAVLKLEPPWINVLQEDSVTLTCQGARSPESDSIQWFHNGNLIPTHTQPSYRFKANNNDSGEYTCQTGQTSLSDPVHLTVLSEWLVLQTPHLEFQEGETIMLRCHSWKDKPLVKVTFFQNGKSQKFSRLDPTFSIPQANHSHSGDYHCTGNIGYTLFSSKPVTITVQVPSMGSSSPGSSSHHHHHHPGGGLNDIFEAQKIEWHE

T4: diFCGR2B-HisBAP (dimeric extracellular domain of FcγRIIB) (Homo sapiens (Human), UniProt P31994 44-223, C-terminally biotinylated)
T4 construct: dimeric, His-tagged, C-terminally biotinylated ECD
T4 sequence: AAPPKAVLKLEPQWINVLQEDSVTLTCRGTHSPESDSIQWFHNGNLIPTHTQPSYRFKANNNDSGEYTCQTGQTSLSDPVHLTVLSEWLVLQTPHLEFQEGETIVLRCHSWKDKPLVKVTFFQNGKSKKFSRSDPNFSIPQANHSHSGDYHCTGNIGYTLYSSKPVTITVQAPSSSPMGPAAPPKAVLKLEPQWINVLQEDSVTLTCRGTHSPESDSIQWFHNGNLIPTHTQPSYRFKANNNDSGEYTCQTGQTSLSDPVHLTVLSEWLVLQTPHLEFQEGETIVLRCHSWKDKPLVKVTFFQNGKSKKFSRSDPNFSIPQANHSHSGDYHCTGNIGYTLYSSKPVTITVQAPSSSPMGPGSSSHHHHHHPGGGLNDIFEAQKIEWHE

B1: IgG1-b12 (antibody)
heavy: not shown
light: EIVLTQSPGTLSLSPGERATFSCRSSHSIRSRRVAWYQHKPGQAPRLVIHGVSNRASGISDRFSGSGSGTDFTLTITRVEPEDFALYYCQVYGASSYTFGQGTKLERKRTVAAPSVFIFPPSDEQLKSGTASVVCLLNNFYPREAKVQWKVDNALQSGNSQESVTEQDSKDSTYSLSSTLTLSKADYEKHKVYACEVTHQGLSSPVTKSFNRGEC
notes: HIV gp120-specific negative control with wild type Fc; also called human IgG1 antibody b12
B2: IgG1-11B8-E430G-S440K-E333S (antibody)
heavy: EVQLVQSGGGLVHPGGSLRLSCTGSGFTFSYHAMHWVRQAPGKGLEWVSIIGTGGVTYYADSVKGRFTISRDNVKNSLYLQMNSLRAEDMAVYYCARDYYGAGSFYDGLYGMDVWGQGTTVTVSSASTKGPSVFPLAPSSKSTSGGTAALGCLVKDYFPEPVTVSWNSGALTSGVHTFPAVLQSSGLYSLSSVVTVPSSSLGTQTYICNVNHKPSNTKVDKRVEPKSCDKTHTCPPCPAPELLGGPSVFLFPPKPKDTLMISRTPEVTCVVVDVSHEDPEVKFNWYVDGVEVHNAKTKPREEQYNSTYRVVSVLTVLHQDWLNGKEYKCKVSNKALPAPISKTISKAKGQPREPQVYTLPPSREEMTKNQVSLTCLVKGFYPSDIAVEWESNGQPENNYKTTPPVLDSDGSFFLYSKLTVDKSRWQQGNVFSCSVMHGALHNHYTQKKLSLSPGK
light: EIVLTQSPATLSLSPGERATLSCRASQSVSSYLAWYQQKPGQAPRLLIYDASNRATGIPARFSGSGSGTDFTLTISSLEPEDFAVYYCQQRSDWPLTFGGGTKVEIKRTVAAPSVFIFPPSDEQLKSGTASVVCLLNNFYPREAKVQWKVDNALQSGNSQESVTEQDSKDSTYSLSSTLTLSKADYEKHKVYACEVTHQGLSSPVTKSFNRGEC
notes: also called IgG1-11B8-E333S-E430G-S440K

What was measured:
[1] = target: T5, FcRnECDHis-B2M-BIO (recombinant biotinylated extracellular domain of human FcRn as dimer with … (human, UniProt P55899 24-297; P61769 21-119, biotinylated); test: FcRn ELISA at pH 6.0
T5 construct: also called FcRnhsECDHis-B2M-BIO

[2] = target: T1, CD20; test: flow cytometry on Wien 133 and Raji cells (FIG. 7)
[3] = target: T2, diFCGR2AH-HisBAP (dimeric extracellular …); test: ELISA, captured antibody 20 ug/mL, dimeric biotinylated FcγR ECD
[4] = target: T3, diFCGR2AR-HisBAP (dimeric extracellular …); test: as above
[5] = target: T4, diFCGR2B-HisBAP (dimeric extracellular …); test: as above
[6] = target: T6, diFCGR3AF-HisBAP (dimeric extracellular domain of FcγRIIIA allotype 158F) (C-terminally biotinylated); test: as above
T6 construct: dimeric, His-tagged, C-terminally biotinylated ECD; also called IIIA-158F

[7] = target: T7, diFCGR3AV-HisBAP (dimeric extracellular domain of FcγRIIIA allotype 158V) (C-terminally biotinylated); test: as above
T7 construct: dimeric, His-tagged, C-terminally biotinylated ECD; also called IIIA-158V

[8] = target: T8, C1q (human, UniProt P02745 23-245; P02746 28-253; P02747 29-245); test: flow cytometry of C1q on antibody-opsonized Wien 133 cells, 20% NHS on ice
T8 construct: native C1q in 20% normal human serum, detected with rabbit anti-human C1q-FITC on antibody-opsonized Wien 133 cells; also called human C1q from normal human serum
T8 sequence (P02745 23-245 limits assumed, chain 1 of 3): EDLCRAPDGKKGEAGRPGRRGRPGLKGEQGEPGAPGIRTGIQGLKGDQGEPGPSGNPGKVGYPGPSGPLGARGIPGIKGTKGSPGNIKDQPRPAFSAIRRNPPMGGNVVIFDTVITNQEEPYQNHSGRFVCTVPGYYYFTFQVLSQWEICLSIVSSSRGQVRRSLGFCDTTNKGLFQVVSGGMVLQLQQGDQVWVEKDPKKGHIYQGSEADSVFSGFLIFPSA
T8 sequence (P02746 28-253 limits assumed, chain 2 of 3): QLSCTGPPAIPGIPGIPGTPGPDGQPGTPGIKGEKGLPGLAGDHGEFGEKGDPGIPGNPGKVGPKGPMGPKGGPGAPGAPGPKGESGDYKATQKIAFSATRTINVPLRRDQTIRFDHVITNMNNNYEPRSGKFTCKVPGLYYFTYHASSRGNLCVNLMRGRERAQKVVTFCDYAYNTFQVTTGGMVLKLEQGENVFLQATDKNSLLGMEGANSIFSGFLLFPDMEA
T8 sequence (P02747 29-245 limits assumed, chain 3 of 3): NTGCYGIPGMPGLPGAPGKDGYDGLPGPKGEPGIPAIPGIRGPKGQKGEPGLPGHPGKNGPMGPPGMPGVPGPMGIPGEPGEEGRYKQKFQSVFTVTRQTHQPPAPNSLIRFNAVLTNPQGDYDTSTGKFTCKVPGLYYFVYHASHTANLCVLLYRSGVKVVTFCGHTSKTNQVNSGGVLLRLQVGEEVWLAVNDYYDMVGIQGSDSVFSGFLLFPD

T5 sequence (P55899 other isoform, or with tags, fused parts or gaps, chain 1 of 2): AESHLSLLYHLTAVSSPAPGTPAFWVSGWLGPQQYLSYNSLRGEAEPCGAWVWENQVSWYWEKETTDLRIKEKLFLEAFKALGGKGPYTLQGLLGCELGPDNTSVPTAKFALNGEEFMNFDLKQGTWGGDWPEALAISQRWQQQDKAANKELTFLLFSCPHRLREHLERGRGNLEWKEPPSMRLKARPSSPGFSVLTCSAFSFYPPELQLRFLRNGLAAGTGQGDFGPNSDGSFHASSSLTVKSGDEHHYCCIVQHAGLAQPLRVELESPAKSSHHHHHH
T5 sequence (P61769 21-119, chain 2 of 2): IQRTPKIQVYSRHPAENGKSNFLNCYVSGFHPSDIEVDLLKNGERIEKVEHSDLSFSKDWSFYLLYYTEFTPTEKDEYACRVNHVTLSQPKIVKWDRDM

Binder | binding result [1] | binding result [2] | reduction of FcγR binding against IgG1-11B8-E430G-S440K [3] [%] | reduction of FcγR binding against IgG1-11B8-E430G-S440K [4] [%] | reduction of FcγR binding against IgG1-11B8-E430G-S440K [5] [%] | reduction of FcγR binding against IgG1-11B8-E430G-S440K [6] [%] | reduction of FcγR binding against IgG1-11B8-E430G-S440K [7] [%] | binding result [8]
B1 | binds | no binding | – | – | – | – | – | –
B2 | – | – | ~50 | ~50 | ~50 | ~20 | ~20 | binds
